The values below are quoted from earlier work in article PMC10531186.

For the series, the target named is uPA (Mus musculus) (UniProt P06869).
Chain of UniProt P06869 (P06869 21-433): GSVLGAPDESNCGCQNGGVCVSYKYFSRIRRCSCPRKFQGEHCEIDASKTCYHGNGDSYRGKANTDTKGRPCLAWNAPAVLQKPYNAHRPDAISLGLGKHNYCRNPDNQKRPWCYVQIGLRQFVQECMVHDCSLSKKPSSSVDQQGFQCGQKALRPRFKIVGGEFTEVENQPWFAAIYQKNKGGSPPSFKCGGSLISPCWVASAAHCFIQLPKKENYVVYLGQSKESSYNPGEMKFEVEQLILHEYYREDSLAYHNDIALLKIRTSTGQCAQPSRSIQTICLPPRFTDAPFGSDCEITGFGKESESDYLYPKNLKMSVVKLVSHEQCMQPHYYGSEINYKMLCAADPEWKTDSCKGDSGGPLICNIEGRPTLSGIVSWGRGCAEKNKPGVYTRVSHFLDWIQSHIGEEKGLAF

A word on the Ki: it is the dissociation constant of the complex between target and ligand, obtained from inhibition or displacement. As for mupain-1, the Ki is 185 nM.
